Test system: HUVECs
Experiment: Blood vessel (tube) formation assay on Matrigel
Type: cell-based, human
Conditions: 4 hours, vs. control
Procedure: HUVECs (20,000 cells/well) were seed on a layer of previously polymerized Matrigel and treated with or without the first peptide and the second peptide. The Matrigel culture was incubated at 37° C. After 4 hours, changes in cell morphology were captured using a phase-contrast microscope (×40). Each sample was assayed in duplicate, and independent experiments were repeated three times. *P<0.05, **P,0.01, ***P<0.001 (vs. control).
HUVECs (20,000 cells/well) were seeded on a layer of previously polymerized Matrigel, treated with the visfatin-derived peptides, and then incubated in a 5% CO2 incubator at 37° C. for 4 hours. Then, changes in the cell morphology were observed and photographed using a phase-contrast microscope at 40× magnification. Each sample was assayed in duplicate, and independent experiments were repeated three times. Angiogenesis was analyzed with ImageJ software using an angiogenesis analyzer (Bethesda, MD, USA).

B1: visfatin (protein, UniProt P43490 1-491, looked up)
Nicotinamide …: MNPAAEAEFNILLATDSYKVTHYKQYPPNTSKVYSYFECREKKTENSKLRKVKYEETVFYGLQYILNKYLKGKVVTKEKIQEAKDVYKEHFQDDVFNEKGWNYILEKYDGHLPIEIKAVPEGFVIPRGNVLFTVENTDPECYWLTNWIETILVQSWYPITVATNSREQKKILAKYLLETSGNLDGLEYKLHDFGYRGVSSQETAGIGASAHLVNFKGTDTVAGLALIKKYYGTKDPVPGYSVPAAEHSTITAWGKDHEKDAFEHIVTQFSSVPVSVVSDSYDIYNACEKIWGEDLRHLIVSRSTQAPLIIRPDSGNPLDTVLKVLEILGKKFPVTENSKGYKLLPPYLRVIQGDGVDINTLQEIVEGMKQKMWSIENIAFGSGGGLLQKLTRDLLNCSFKCSYVVTNGLGINVFKDPVADPNKRSKKGRLSLHRTPAGNFVTLEEGKGDLEEYGQDLLHTVFKNGKVTKSYSFDEIRKNAQLNIELEAAHH
notes: 55 kDa cytokine secreted from adipocytes, used as positive control
number of master junctions (tube formation) (second peptide except at the 2.0 μM concentration): significantly increased | number of meshes (tube formation) (positive controls): not significantly changed

From US20260166130A1, “PEPTIDE COMPOSITION HAVING ANGIOGENIC ACTIVITY, AND PHARMACEUTICAL COMPOSITION USING SAME AND COSMETIC COMPOSITION USING SAME” (LABTOMEDI CRO CO.,LTD., priority 2022, published 2026)
